From US20040073001A1 (Kyowa Kirin, published 2004)

T1: GFP-B9L (full-length), full-length B9L cDNA in pEGFP-C2 (plasmid pEGFP-C2B9L) (mouse, UniProt Q67FY2 1-1494)
T1 construct: expressed in mouse 3T3 cells; also called full-length B9L protein; not shown: green fluorescent protein (GFP) as encoded by vector pEGFP-C2 (Clontech)
T1 sequence: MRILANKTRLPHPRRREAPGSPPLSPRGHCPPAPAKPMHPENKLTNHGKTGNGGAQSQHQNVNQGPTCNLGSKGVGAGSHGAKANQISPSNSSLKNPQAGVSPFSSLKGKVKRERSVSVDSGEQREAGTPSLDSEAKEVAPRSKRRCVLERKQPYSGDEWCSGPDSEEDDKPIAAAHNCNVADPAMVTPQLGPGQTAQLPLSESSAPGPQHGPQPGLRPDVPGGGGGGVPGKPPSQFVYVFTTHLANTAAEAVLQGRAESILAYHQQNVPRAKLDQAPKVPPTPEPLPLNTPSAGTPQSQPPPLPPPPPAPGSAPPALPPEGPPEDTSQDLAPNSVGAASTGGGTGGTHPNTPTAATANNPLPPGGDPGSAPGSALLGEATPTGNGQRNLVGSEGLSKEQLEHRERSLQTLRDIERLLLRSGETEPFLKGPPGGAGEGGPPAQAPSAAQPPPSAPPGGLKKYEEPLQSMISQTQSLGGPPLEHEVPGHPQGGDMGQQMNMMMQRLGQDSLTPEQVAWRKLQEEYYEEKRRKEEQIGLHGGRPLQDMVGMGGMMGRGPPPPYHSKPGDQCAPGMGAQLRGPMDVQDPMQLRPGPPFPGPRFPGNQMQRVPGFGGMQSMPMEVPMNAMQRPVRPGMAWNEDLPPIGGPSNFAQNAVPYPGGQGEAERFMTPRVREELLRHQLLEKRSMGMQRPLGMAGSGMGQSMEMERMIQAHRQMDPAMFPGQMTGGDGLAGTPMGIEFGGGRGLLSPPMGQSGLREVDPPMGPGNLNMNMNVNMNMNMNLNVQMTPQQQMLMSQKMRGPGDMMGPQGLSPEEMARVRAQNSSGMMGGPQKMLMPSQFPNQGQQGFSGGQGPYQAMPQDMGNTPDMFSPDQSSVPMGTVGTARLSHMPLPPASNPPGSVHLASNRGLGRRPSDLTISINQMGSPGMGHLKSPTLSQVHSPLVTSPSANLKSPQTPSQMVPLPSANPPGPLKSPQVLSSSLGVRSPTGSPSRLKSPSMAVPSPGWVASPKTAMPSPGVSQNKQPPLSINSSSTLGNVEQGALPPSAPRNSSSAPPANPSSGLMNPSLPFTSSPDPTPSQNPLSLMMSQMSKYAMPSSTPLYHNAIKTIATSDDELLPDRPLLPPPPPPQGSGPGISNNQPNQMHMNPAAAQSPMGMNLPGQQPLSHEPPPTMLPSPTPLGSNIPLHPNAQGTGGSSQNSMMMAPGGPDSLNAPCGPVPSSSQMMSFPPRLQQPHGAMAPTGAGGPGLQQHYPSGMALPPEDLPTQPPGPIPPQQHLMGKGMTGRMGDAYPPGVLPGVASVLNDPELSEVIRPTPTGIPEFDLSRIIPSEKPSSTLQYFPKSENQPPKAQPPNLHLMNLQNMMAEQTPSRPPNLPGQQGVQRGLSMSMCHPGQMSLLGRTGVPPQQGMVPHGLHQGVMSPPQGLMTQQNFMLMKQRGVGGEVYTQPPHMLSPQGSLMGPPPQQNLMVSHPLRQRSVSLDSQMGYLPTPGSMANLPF

B1: GFP-B9L fusion protein (B9L cDNA fragment, SEQ ID NO: 4, in pEGFP-C2) (other)
chain: LANTAAEAVLQGRAESILAYHQQNVPRAKLDQAPKVPPTPEPLPLNTPSAGTPQSQPPPLPPPPPAPGSAPPALPPEGPPEDTSQDLAPNSVGAASTGGGTGGTHPNTPTAATANNPLPPGGDPGSAPGSALLGEATPTGNGQRNLVGSEGLSKEQLEHRERSLQTLRDIERLLLRSGETEPFLKGPPGGAGEGGPPAQAPSAAQPPPSAPPGGLKKYEEPLQSMISQTQSLGGPPLEHEVPGHPQGGDMGQQMNMMMQRLGQDSLTPEQVAWRKLQEEYYEEKRRKEEQIGLHGGRPLQDMVGMGGMMGRGPPPPYHSK
notes: Expressed in COS-7 and NIH 3T3 cells; not shown: green fluorescent protein (GFP) as encoded by vector pEGFP-C2 (Clontech)
B2: Mutated mouse β-catenin S33Y (other, UniProt Q02248 1-781, looked up)
chain: MATQADLMELDMAMEPDRKAAVSHWQQQSYLDYGIHSGATTTAPSLSGKGNPEEEDVDTSQVLYEWEQGFSQSFTQEQVADIDGQYAMTRAQRVRAAMFPETLDEGMQIPSTQFDAAHPTNVQRLAEPSQMLKHAVVNLINYQDDAELATRAIPELTKLLNDEDQVVVNKAAVMVHQLSKKEASRHAIMRSPQMVSAIVRTMQNTNDVETARCTAGTLHNLSHHREGLLAIFKSGGIPALVKMLGSPVDSVLFYAITTLHNLLLHQEGAKMAVRLAGGLQKMVALLNKTNVKFLAITTDCLQILAYGNQESKLIILASGGPQALVNIMRTYTYEKLLWTTSRVLKVLSVCSSNKPAIVEAGGMQALGLHLTDPSQRLVQNCLWTLRNLSDAATKQEGMEGLLGTLVQLLGSDDINVVTCAAGILSNLTCNNYKNKMMVCQVGGIEALVRTVLRAGDREDITEPAICALRHLTSRHQEAEMAQNAVRLHYGLPVVVKLLHPPSHWPLIKATVGLIRNLALCPANHAPLREQGAIPRLVQLLVRAHQDTQRRTSMGGTQQQFVEGVRMEEIVEGCTGALHILARDVHNRIVIRGLNTIPLFVQLLYSPIENIQRVAAGVLCELAQDKEAAEAIEAEGATAPLTELLHSRNEGVATYAAAVLFRMSEDKPQDYKKRLSVELTSSLFRTEPMAWNETADLGLDIGAQGEALGYRQDDPSYRSFHSGGYGQDALGMDPMMEHEMGGHHPGADYPVDGLPDLGHAQDLMDGLPPGDSNQLAWFDTDL
notes: Expressed from pMKITneo in COS-7 or NIH 3T3 cells; also called S33Y β-catenin

How the values were obtained:
[1] = target: B2; assay: co-immunoprecipitation from COS-7 lysates with anti-GFP antibody, Western blotting with anti-β-catenin antibody
Source text: The B9L cDNA fragment obtained in Example 1 was inserted into pEGFP-C2, green fluorescent protein (GFP) expression vector (Clontech), to construct an expression plasmid for GFP-B9L fusion protein (hereinafter abbreviated as GFP-B9L). Mutated mouse β-catenin S33Y cDNA wherein serine 33, the target site of GSK-3β-mediated phosphorylation, is substituted with tyrosine was subcloned into animal cell expression plasmid vector pMKITneo (Nakamura et al., Genes to cells 3: 395 (1998)) to construct an expression plasmid for S33Y β-catenin. These plasmids were transfected using LipofectAMINE (Life Technologies) into monkey kidney cell line COS-7 cells (ATCC: CRL-1651) for forced expression. After 24 hr, the cells were harvested to prepare cell lysates by adding buffer A containing 1% Triton X-100. The cell lysates were reacted with anti-GFP antibody or anti-β-catenin antibody at 4° C. for 1 hr to form an immune complex between GFP-B9L or S33Y β-catenin and the respective antibody, and then Protein G-Sepharose 4B (Amersham Pharmacia Biotech), which is capable of binding to IgG, was added to the reaction solution to adsorb the immune complex. The Protein G-Sepharose 4B was washed well with lysis buffer A, and SDS-PAGE sample buffer was added to elute the immune complex. […]

[2] = target: T1, GFP-B9L (full-length), full-length B9L …; assay: co-localisation in the nucleus of mouse 3T3 cells, fluorescence microscopy (indirect)
Description: The plasmids for the expression of GFP-B9L and S33Y β-catenin constructed in Example 3 were transfected alone or together into mouse NIH 3T3 cells using Effectene (QIAGEN), and were forcedly expressed. GFP expression vector pEGFP-C2, as a control, was also transfected into mouse NIH 3T3 cells and was forcedly expressed. After 24 hours, the cells were fixed with formaldehyde, stained with anti-β-catenin antibody, reacted with rhodamine isothiocyanate (RITC)-labeled anti-rabbit IgG antibody, and observed by fluorescence microscopy to detect S33Y β-catenin in the cell. GFP-B9L was directly detected by observation of GFP under fluorescence microscopy (with the use of-FITC filter).
The full-length B9L cDNA obtained in Example 1 was inserted into the ECORI-SalI site of pEGFP-C2 to prepare plasmid pEGFP-C2B9L for the expression in animal cells, cotransfected with S33Y β-catenin expression plasmid into mouse 3T3 cells and the plasmids were forcedly expressed as described above, and S33Y β-catenin was. detected in the cells. Similar to theB9L protein fragment obtained by the two hybrid system, both S33Y β-catenin and GFP-B9L (full-length) were localized in the nucleus. Thus, the full-length B9L protein was also confirmed to bind to β-catenin and localizes β-catenin into the nucleus.

binding result [1]	binding result [2]	Binder
binds	–	B1
–	binds	B2
